Key:
[1] = molecular target: biotinylated human SIRPα allele 2 domain 1 (a2d1) (human) (UniProt P78324); experiment: SPR, Biacore T100, biotinylated SIRPα on SA chip, 25 C, 1:1 Langmuir model
[2] = molecular target: biotinylated human SIRPα allele 1 domain 1 (a1d1) (human) (UniProt P78324); experiment: as above
biotinylated human SIRPα allele 1 domain 1 (a1d1) (human), sequence (P78324 other isoform, or with tags, fused parts or gaps): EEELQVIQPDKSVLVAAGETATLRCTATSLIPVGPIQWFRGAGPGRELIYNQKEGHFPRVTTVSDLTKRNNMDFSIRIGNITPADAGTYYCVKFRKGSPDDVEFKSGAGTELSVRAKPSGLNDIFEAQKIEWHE

biotinylated human SIRPα allele 2 domain 1 (a2d1) (human), sequence (P78324 other isoform, or with tags, fused parts or gaps): as above

Kd [1]: 1.1 nM
Kd [2]: 0.296 nM
B1: high affinity CD47 variant N363 C15G (designed binder)
chain: WQLPLLFNKTKSVEFTFGNDTVVIPCFVTNMEAQNTTEVYVKWKFKGRDIYTFDGDKNKSTVPTDFSSAKIEVSQLLKGDASLKMDKSDAVSHTGNYTCEVTELTREGETIIELKYRVVSHHHHHHHH
